Reference: publication PMC12990809

Legend:
Test in all cases: pulldown
Settings in all cases: 20 nM protein, 1.5 uM RNA pool; 20 mM HEPES pH 7.8, 70 mM KCl, 10 mM NaCl, 10% glycerol, 2 mM DTT, 0.1 ug/uL BSA; 30 min, 4 C
[1] = biological target: T1, NEMVEDRAFT_v1g141408 (Nematostella vectensis) (UniProt A7T170)
T1 sequence: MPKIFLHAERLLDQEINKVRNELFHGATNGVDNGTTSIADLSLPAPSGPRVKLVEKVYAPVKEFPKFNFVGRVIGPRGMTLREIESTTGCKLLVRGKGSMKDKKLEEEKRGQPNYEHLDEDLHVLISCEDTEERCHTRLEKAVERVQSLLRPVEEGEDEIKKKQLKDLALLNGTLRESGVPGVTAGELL

DDX53 (Homo sapiens) = DDX53 (Homo sapiens) (UniProt Q86TM3)
Sequence of DDX53 (Homo sapiens) (Q86TM3 whole entry): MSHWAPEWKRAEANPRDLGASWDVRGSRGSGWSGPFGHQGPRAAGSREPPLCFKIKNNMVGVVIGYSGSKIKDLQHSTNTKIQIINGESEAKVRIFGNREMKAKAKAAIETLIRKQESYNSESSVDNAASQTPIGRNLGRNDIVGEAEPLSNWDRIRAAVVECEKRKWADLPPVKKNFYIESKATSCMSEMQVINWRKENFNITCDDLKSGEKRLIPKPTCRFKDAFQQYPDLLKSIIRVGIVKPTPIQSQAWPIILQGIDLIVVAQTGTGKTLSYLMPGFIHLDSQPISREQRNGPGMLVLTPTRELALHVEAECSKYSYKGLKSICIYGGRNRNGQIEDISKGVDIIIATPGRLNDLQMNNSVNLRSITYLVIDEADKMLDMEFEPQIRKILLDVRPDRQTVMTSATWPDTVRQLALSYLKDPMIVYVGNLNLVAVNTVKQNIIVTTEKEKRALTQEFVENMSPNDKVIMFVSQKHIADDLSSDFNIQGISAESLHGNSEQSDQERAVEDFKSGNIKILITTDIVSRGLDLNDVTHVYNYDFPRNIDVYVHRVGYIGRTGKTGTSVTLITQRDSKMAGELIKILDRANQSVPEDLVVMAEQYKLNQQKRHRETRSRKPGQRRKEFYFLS

mex3c (Danio rerio) = biological target: T2, mex3c (Danio rerio) (UniProt A0A8M1REM5)
T2 sequence: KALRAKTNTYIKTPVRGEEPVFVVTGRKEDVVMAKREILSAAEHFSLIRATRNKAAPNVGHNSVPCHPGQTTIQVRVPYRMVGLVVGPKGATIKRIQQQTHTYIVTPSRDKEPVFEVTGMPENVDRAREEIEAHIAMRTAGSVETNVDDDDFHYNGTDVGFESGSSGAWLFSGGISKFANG

[2] = biological target: T3, ENSMODG00000011916 (Monodelphis domestica) (UniProt F7E028)
T3 sequence: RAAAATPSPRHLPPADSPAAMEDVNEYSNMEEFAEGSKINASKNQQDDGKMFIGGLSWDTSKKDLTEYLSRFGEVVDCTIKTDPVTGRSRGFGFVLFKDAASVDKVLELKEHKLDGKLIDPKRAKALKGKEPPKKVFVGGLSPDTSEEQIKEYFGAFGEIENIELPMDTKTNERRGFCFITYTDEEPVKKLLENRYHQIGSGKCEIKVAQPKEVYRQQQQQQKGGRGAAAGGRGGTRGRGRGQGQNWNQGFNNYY

[3] = biological target: T4, BATDEDRAFT_13807 (Batrachochytrium dendrobatidis) (UniProt F4NYD0)
T4 sequence: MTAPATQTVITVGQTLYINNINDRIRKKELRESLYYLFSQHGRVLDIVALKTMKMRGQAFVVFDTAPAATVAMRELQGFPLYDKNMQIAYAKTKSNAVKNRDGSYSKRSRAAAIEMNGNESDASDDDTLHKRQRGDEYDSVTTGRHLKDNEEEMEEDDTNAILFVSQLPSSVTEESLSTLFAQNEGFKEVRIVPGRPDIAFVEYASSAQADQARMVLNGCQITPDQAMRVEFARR

[4] = biological target: T5, LmjF.29.1340 (Leishmania major) (UniProt E9ADZ3)
T5 sequence: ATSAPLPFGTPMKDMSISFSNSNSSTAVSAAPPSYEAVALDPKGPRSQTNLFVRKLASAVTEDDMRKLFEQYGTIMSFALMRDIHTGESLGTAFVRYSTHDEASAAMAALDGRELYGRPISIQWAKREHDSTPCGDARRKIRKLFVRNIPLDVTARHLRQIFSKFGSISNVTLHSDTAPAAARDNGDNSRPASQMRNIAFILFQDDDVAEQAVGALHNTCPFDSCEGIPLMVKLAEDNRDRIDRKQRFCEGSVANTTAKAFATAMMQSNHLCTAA

[5] = biological target: T6, LmjF.29.1350 (Leishmania major) (UniProt E9ADZ4)
T6 sequence: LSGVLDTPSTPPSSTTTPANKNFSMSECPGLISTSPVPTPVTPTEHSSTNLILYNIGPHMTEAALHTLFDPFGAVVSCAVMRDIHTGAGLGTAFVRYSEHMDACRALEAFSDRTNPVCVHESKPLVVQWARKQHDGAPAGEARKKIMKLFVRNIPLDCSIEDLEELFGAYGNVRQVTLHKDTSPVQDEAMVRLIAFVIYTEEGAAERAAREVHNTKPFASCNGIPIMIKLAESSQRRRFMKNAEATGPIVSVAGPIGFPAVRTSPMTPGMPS

[6] = biological target: T7, Tb927.3.3960 (Trypanosoma brucei) (UniProt Q57WD2)
T7 sequence: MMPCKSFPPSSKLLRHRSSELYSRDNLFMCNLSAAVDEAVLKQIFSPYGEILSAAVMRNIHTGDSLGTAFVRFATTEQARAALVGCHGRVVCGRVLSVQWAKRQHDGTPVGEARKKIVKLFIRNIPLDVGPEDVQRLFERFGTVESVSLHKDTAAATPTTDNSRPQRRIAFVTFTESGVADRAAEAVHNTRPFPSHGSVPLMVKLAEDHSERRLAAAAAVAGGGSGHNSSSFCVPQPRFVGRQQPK

[7] = biological target: T8, LmjF.29.0680 D253N (Leishmania major) (UniProt E9ADS0)
T8 sequence: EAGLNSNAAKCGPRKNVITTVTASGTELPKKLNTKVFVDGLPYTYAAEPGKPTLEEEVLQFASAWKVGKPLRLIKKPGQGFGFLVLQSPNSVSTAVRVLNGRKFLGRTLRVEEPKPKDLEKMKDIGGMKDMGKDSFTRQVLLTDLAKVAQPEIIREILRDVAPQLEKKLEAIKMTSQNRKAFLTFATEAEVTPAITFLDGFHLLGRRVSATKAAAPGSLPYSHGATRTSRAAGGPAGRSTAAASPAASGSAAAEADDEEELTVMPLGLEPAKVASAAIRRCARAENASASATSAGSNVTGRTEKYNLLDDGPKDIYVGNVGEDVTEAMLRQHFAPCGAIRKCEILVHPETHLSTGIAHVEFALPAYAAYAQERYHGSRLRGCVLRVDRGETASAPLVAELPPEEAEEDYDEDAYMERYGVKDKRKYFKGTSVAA

ACUAAC [RNAcompete motif RNCMPT00718] was tested. Which binding signal (z-score (mean of top ten 7-mers)) [1] did it give?
Its binding signal (z-score (mean of top ten 7-mers)) is 18.9.

AGAAUAA [RNAcompete motif RNCMPT00743] was tested. Which binding signal (z-score (mean of top ten 7-mers)) (DDX53 (Homo sapiens)) did it give?
The binding signal (z-score (mean of top ten 7-mers)) was 6.26.

How did the binding signal (z-score (mean of top ten 7-mers)) (mex3c (Danio rerio)) turn out when AGAGUA [RNAcompete motif RNCMPT00727] was run?
The binding signal (z-score (mean of top ten 7-mers)) was 10.1.

With AGAUAAA [RNAcompete motif RNCMPT00707] as the substance, how does the binding signal (z-score (mean of top ten 7-mers)) [2] read?
Its binding signal (z-score (mean of top ten 7-mers)) is 8.36.

For AUNGCAC [RNAcompete motif RNCMPT00739], which binding signal (z-score (mean of top ten 7-mers)) [3] is on record?
Its binding signal (z-score (mean of top ten 7-mers)) is 7.82.

How did the binding signal (z-score (mean of top ten 7-mers)) [4] turn out when CAUAGU [RNAcompete motif RNCMPT00712] was run?
The binding signal (z-score (mean of top ten 7-mers)) was 16.4.

Which binding signal (z-score (mean of top ten 7-mers)) [5] does the source give for CAUAGU [RNAcompete motif RNCMPT00713] here?
The binding signal (z-score (mean of top ten 7-mers)) was 24.5.

With CAUUGU [RNAcompete motif RNCMPT00735] as the substance, how does the binding signal (z-score (mean of top ten 7-mers)) [6] read?
Its binding signal (z-score (mean of top ten 7-mers)) is 23.

GAAGGA [RNAcompete motif RNCMPT00720] was tested. Which binding signal (z-score (mean of top ten 7-mers)) [7] did it give?
Its binding signal (z-score (mean of top ten 7-mers)) is 7.49.
